Earlier results, collected in PMC9133541.

Target: ExoS peptide (Pseudomonas aeruginosa) (UniProt G3XDA1)
Assay: ITC

UniProt G3XDA1, sequence (G3XDA1 whole entry): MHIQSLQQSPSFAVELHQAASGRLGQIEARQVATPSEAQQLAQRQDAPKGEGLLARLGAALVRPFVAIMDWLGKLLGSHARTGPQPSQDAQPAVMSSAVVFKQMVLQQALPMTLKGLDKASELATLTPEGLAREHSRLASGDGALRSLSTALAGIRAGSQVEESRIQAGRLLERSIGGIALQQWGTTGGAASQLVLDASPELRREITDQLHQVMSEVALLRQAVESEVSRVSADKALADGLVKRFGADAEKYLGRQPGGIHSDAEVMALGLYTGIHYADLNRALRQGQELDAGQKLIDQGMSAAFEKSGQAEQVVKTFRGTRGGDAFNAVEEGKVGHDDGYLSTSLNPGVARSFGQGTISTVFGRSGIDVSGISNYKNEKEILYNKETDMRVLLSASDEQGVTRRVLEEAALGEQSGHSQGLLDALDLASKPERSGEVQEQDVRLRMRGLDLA

Substance: 14-3-3 sigma (from UniProt P31947)
- Kd: 45.6 µM
